Reference: the nanobody polyreactivity screen of Harvey et al. (2022)

test: yeast display, Sf9 membrane polyspecificity reagent, FACS + sequencing; frameworks hold sequencing errors
In short: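 A synthetic nanobody library was expressed on Saccharomyces cerevisiae BJ5465 by galactose induction for 36–48 hours. The library was stained for 1 hour at 4 °C with 10% biotinylated, detergent-solubilized Sf9 membrane reagent and enriched with streptavidin microbeads before FACS. Low and high (top ~1%) gates were set on anti-HA fluorescence for expression and streptavidin fluorescence for reagent binding, and each polyreactivity label reflects the gate of origin.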

| Sequence | polyreactivity (PSR sort gate) |
| --- | --- |
| QVQLVESGGGLVQAGGRLRLSCAASGSTFYLNAMGWYRQAPGKERELVAAISSGGRTYYADSVKGRFTISRDNAKNTVYLQMTSLKPEDTAVYYCNAVRYLRGAYNYWGQGTQVTVSS | high polyreactivity |
| QVQLVESGGGLVQAGGRLRLSCAASGSTLSYYAMGWYIQAPGKERELVAAISFSGGSTYYADSVKGRFTISRDNAKNTVYLQMNSLKPEDTAVYYCNAPPLYRDEYWGQGTQVTVSS | high polyreactivity |
| QVQLVESGGGLVQAGGRLRLSCAASGSTYYNAMGWYRQAPGKERELVAAIRFRSGSTYYADSVKGRFTISRDNAKNTVYLQMNSLKPEDTAVYYCAAYCRRSYVDSYDIRFDYWGQGTQVTVSS | high polyreactivity |
| QVQLVESGGGLVQAGGRLRLSCAASGTIFYWNAMVWYRQATGKERELVAAINSGDSTNYADSVKGRFTISRDNAKNTVYFQMYSLKPEDTAVYYCAASIYAALNGGPGYDYWGQGTQVTVSS | low polyreactivity |
| QVQLVESGGGLVQAGGRLRLSCAASGTTIVYYAMGWSRQAPGKEREMVAAISWSGTRTYYADSVKGRFTISRDTGKNSVYLQMNSLIPEDTAVYYCAAKGGYSTGRPTFTIFNYWGQGTQVTVSS | high polyreactivity |
| QVQLVESGGGLVQAGGRLRLSCAASGYTFRRNAMGWYRQAPGKERELVAAITWRGTSTYYADSVKGRFTISRDNAKNTVYLQMNSLKPEDTAVYYCAARFYSGPGGYTMYYWGQGTQVTVSS | high polyreactivity |
| QVQLVESGGGLVQAGGRLRLSCAATGRTFSYNAMGWYRQAPGKERELVAAITTNSGSRTYYADSVKGRFTISRDNAKNTVYLQMNSLKPEDTAVYYCAADGPVVSGYYWGQGTQVTVSS | high polyreactivity |
| QVQLVESGGGLVQAGGRLRLSCAGSGSTSYGYAMGWYRQAPGKERELVAAITSGGRTYYADSVKGRFTISRDNAKNTVYFQMNSLKPEDTAVYYCAAVRALRKVRDYYYWGQGTQVTVSS | high polyreactivity |
| QVQLVESGGGLVQAGGRLRLSCAPSGSTFTANDMGWYRQAPVKERELVAAISISGTRTYYADSVKGRFTISRDNAKNTVYLQMNSLKPEDTAVYYGNKATSYFTVRGYDYWGQGTQVTVSS | high polyreactivity |
| QVQLVESGGGLVQAGGRLRLSCEASGNIFGYYAMGWSRQAPGKERELVAAITRSGSSTYYADSVKGRFTISRDNAKNNVFLQMNSLKPEDTAVYYCSADNFYQAYGYWGQGTQVTVSS | low polyreactivity |
| QVQLVESGGGLVQAGGRLRLSSAASGFTFNKYGMGWYRQAPRKERELVAAISGSGGSTRYADSVKGRFTISRDNAKNTVYLLMNSLKPEDTAVYFCAKRSQTRYYYWGQGTQVTVSS | high polyreactivity |
| QVQLVESGGGLVQAGGRLRLTCAASGRNYNGNAMGRYRQAPGTERELVAGIDSDGSTNYADSVKGRFTISRDNAKNTVYLQMNSLKPDDTAGYYCAAVQGYRFYEYYYWGQGTQVTVSS | low polyreactivity |
| QVQLVESGGGLVQAGGRLRLTCAASGSIFFYAMGWYRQAPGKERELVAGITTSGGSTYYADSVKGRFTISRDNAKNTVYLQMYSLKPEYTAVYYCAADGSRAGQEGNDYWGQGTQVTVSS | low polyreactivity |
| QVQLVESGGGLVQAGGRLRLTCAASGSTFFTNAMGWYRQAPGKERELVAAITINDGSTFYADSVKGRFTISRDNAKKTVYLQMNSLKPEDTAVYYCNADGVDLYDFWGQGTQVTVSS | low polyreactivity |
| QVQLVESGGGLVQAGGRLRLTCAASGSTFGDYAMGWYRQAPGKERELVAAITYSGGRTYYADSVKGRFTISRDNAKNTGDLQMNRLKPEDTAVYYCAARVRYPSRRGNYDYWGEGTQVTVSS | high polyreactivity |
| QVQLVESGGGLVQAGGRLRLTCAASGSTFPTYAMGWYRQAPGKERELVAAISTRGGSTYYADSVKGRFTISRDNAKNTVYLQMNSLKPEDTAVYYCATGKSLGRYHYEYWGQGSQVTVSS | low polyreactivity |
| QVQLVESGGGLVQAGGRLSLSCAASGSTLWGYAMGWYRQAPGKERELVATINQSAGSTYYADSVKGRFTISRDHAKNSVYLQMHSLKPEVTAVYYCAAEALVQFSYDYWGQGTQVTVSS | low polyreactivity |
| QVQLVESGGGLVQAGGRVRLSCAASVSTFKQYSMGWYRQATGKERELVAAITRGGRTNYAYSVKGRFTISRDNAKNTVSLQMNSLKQEDTAVYYCAKLLSGYGRWWYDYWGQGTQVTLSS | high polyreactivity |
| QVQLVESGGGLVQAGGSDRLSCAASGRTFDRYAMGWYRQAPGKERELVAAISRGGSTNYADSVKGRFTISRDNAKNTVYLQMNSLKPEDTAVYYCAARVSFLHLRRAYDYWGQGSQVTVSS | high polyreactivity |
| QVQLVESGGGLVQAGGSFRLSCPASGGPVDTYVMGCYRQARGKERELVAVITRGASTYYADSVKGRFTITRDNAKNTVYLQNNRLKPEDTAVYYCAAAFYSPDFYRFWYSFDYWGQGTQVTVSS | low polyreactivity |
| QVQLVESGGGLVQAGGSHPLSCAASGSIFDLYDMGWYRQAPGKERELVAAISLIGGSTSYADSVKGRFTISRDNAKNSVYLQMNSLKPEDTAVYYCAVDSRPYLRDYWGQGTQVTISS | low polyreactivity |

| Sequence | polyreactivity (PSR sort gate) |
| --- | --- |
| QVQLVESGGGLVQAGGSHRFSCAASGRIIYTNAMGWYRQAPGKEREFVAVISWGGDTTYYADSVKGRFTISRDNAKNTVYLQMNSLKPEDTAVYYCNAEWGPTYEIYDSWGPGTQVTVSS | low polyreactivity |
| QVQLVESGGGLVQAGGSHRLSCAASGFIFGINVMGWYRQAPGKERELVAAISGSGSSTYYADSVKGRFTISRDNAKNTVYLQMNSLKPEDTAVYYCAARSVSTLRFTSRKLRYDYWGQGTQVTVSS | high polyreactivity |
| QVQLVESGGGLVQAGGSHRLSCAASGFIFYSNAMGWYRQAPGKERELVAAITSGGSTYYADSVKGRFTISRDNAKNTVYLQMNSLKPEDTAVYYCNKARRWRGYDYWGQGTLVTVSS | high polyreactivity |
| QVQLVESGGGLVQAGGSHRLSCAASGFTFRHYTMGWYRQAPGKERELVAVITRSGGSTYYADSVKGRFTISRDNAKNTVYLQMNSLKPEDTAVYYCAVGRTYNADGYWGQGTQVTVSS | high polyreactivity |
| QVQLVESGGGLVQAGGSHRLSCAASGFTFYIYAMGWYRQAPGKERELVAAINIGGGGTYYADSVKGRFTISRDNAKNTVYLLMHSLKPEDTAVYDCAAVYCYDYYCTEYDYWGQGTQVNVSS | low polyreactivity |
| QVQLVESGGGLVQAGGSHRLSCAASGIIFYRNAMGWYRQAPGKERELVATITVSSGSTYYADSVKGRFTISRDNAKNTVYLLMYSLKPEDTAVYYCNARYYYFSVRYKYDFNYWGQGTQVTVSS | high polyreactivity |
| QVQLVESGGGLVQAGGSHRLSCAASGITFYGYARGWYRQAPGKERELVAAISGNGGRTYYADSVKGRFTISRDYAKNTVYLQMNSLKPEDTAVYYCNVKVRSRRTGDRYDYWGQGTQVTVSS | high polyreactivity |
| QVQLVESGGGLVQAGGSHRLSCAASGLTFTDNAMGRYRQAPGKERELVAAMSRCGGTTYYAASVKGRFTISRDNAKNTVYLQMNSLKPEDTAVYYCNADTYRRLYGNYDYWGQGTQLTVSS | high polyreactivity |
| QVQLVESGGGLVQAGGSHRLSCAASGRIFALNTMRWYRQAPGKEREFVAAITTSGGSTYADSVKGRFTISRDNAKNTVYLQMNSLKPEDTAVYYCNKEYYHKWAPTYDYWGQGTEVTVSS | low polyreactivity |
| QVQLVESGGGLVQAGGSHRLSCAASGRIFDDNALGWYCQAPGKERELVAAITGGGRTNYADSVKGRFTISRDNAKNTVYLQMNSLKPEDTAVSYCAAATYGWVIYIYDYWGQGTQVNVSS | low polyreactivity |
| QVQLVESGGGLVQAGGSHRLSCAASGRIFGYNAMGWYRQAPGKEWELVAAISSPGNTYYADSVKGRFTISRDNAKNTVYLQMNSLKPEDTAVYYCARSWLYSQRRYDYWGQGTQVTVSS | low polyreactivity |
| QVQLVESGGGLVQAGGSHRLSCAASGRIFNWYAMGWYRHAPGKDRALVARISSGDITSYADSVKGRFSISRDNAKNTVYLQMNILKPEDTAVYYCAARQWFLYDYWGQGTQVTVSS | low polyreactivity |
| QVQLVESGGGLVQAGGSHRLSCAASGRIFPSYAMGWYRQAPGKQRELVAAISKYGGRTYYADSVKGRFTISRDNAKNTVYLQMNSLKPEDTEVYYCAADGFRYYSWTRFSYYSGYDYWGQGSQVTVSS | high polyreactivity |
| QVQLVESGGGLVQAGGSHRLSCAASGRIFRPNAMGWYRQAPGKERELVASISQSGGSTYADSVKGRFTISRDNAKNTVYLQMNSLKPEDTAVYYCAKVQGWRYQIYDYWGQGTQVTVSS | low polyreactivity |
| QVQLVESGGGLVQAGGSHRLSCAASGRIFRRYAMGWYRQARGQERELDAGITGSGTSTYYADSVKGRFTISRDNAKNTVYLQMNSLKPEDTAVYYCAADRGRGYRYNYWGQGTQVTVSS | high polyreactivity |
| QVQLVESGGGLVQAGGSHRLSCAASGRIFYRYVMGWYRQAPGKERELVAAISRGGGTNYADSVKGRFTISRDNAKNTVYLQMNSLKPEDTAVYYCAARGSPGAGYYWGQGTQVTVSS | high polyreactivity |
| QVQLVESGGGLVQAGGSHRLSCAASGRSFKYYAMGWYRQAPGKERELVARISPSSGNTYYADSVKGRFTISRDNAKNTVYLQMNSLKPEDTGVYVCATVPHYNGFNYWGQGTQVTVSS | high polyreactivity |
| QVQLVESGGGLVQAGGSHRLSCAASGRTFPVYAMGWYRHAPGKERELVAAIRGRSVRTYYADSVKGRFTISRDNAQNSVYLQMNSLKPEDTAVYYCAAYYFNPGMDYWGQGTQVTVSS | high polyreactivity |
| QVQLVESGGGLVQAGGSHRLSCAASGRTFPYYAMGWYRQAPGKERELVAAITRGVRTHYADSVKGRFTISRDNAKNTVYLQMNSLKPEDTAVYYCAREDWGSYSDMDSWGQGTQVTVSS | low polyreactivity |
| QVQLVESGGGLVQAGGSHRLSCAASGRTFRDNTLGWYRQAPGKERELVAAISRRGGSTYYADSVKGRFTISRDNANNTVYLQMNSLKPVDTADYYCNAVFLTYGSNRGEYWGQGTQVTVSS | high polyreactivity |
